Patent US20130251707A1

Target: human TNFR1-Fc (human) (UniProt P19438)
Experiment: quartz crystal microbalance, TNFR1-Fc immobilized

Sequence of human TNFR1-Fc (human) (P19438 29-211 limits assumed): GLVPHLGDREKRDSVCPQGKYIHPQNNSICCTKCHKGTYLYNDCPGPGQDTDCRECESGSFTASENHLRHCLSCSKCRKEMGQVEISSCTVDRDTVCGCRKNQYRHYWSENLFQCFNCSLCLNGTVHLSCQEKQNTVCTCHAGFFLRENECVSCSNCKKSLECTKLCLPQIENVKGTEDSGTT

B1: scFv IZI-06.1 (scFv, V domains shown, part only)
VH: QVQLVQSGAEVKKPGSSVKVSCKASGYTFTDFYINWVRQAPGQGLEWIGEIYPYSGHAYYNEKFKARVTITADKSTSTAYMELSSLRSEDTAVYYCARWDFLDYWGQGTTVTVSS
VL: DIVMTQSPLSLPVTPGEPASISCRSSQSLLHSNGNTYLHWYLQKPGQSPQLLIYTVSNRFSGVPDRFSGSGSGTDFTLKISRVEAEDVGVYYCSQSTHVPYTFGGGTKVEIKR
modifications: linker and tags not stated
Kd: 2.2 nM
fold reduced affinity (against ATROSAB and H398): 10 fold
koff: 0.00076 s⁻¹
kon: 350000 M⁻¹ s⁻¹
